Columns and labels:
His-tagged human FAP ECD = target: T1, His-tagged human FAP ECD (human, UniProt Q12884 27-760); assay: SPR ProteOn XPR36, 25 C; His-tagged FAP captured by anti-penta-His IgG, construct as analyte
T1 construct: also called hu FAP
Protocol: (§1) To determine the affinities to FAP, the target protein was captured via its H6-tag by a covalently immobilized anti-H6 antibody (FIG. 9A). Briefly, anti-penta His IgG (Qiagen #34660, mouse monoclonal antibody) was immobilized at high levels (up to ˜5.000 RU) at 30 μ/min onto separate vertical channels of a GLM chip by simultaneously activating all channels for 5 min with a freshly prepared mixture of 1-ethyl-3-(3-dimethylaminopropyl)-carboiimide (EDC) and N-hydroxysuccinimide (sNHS), subsequently injecting 15 μg/ml anti-penta His IgG in 10 mM sodium acetate buffer pH 4.5 for 180 sec. Channels were blocked using a 5-min injection of ethanolamine. H6-tagged FAP from different species (see SEQ ID NOs 81, 83 and 85) was captured from a 5 μg/ml dilution in running buffer along the vertical channels for 60 s at 30 μl/min to achieve ligand densities between ˜250 and 600 RU. In a one-shot kinetic assay set-up (OSK), antibody-IL-10 fusion constructs were injected as analytes along the horizontal channels in a five-fold dilution series ranging from 50 to 0.08 nM at 100 μl/min. Association phase was recorded for 180 s, dissociation phase for 600 s. […] Running buffer (PBST) was injected along the sixth channel to provide an “in-line” blank for referencing. Association rates (kₒₙ) and dissociation rates (koff) were calculated using a simple 1:1 Langmuir binding model (ProteOn Manager software version 2.1) by simultaneously fitting the association and dissociation sensorgrams. The equilibrium dissociation constant (KD) was calculated as the ratio koff/kₒₙ.

His-tagged mouse FAP ECD = target: T2, His-tagged mouse FAP ECD (mouse, UniProt P97321 27-761); assay: as above
T2 construct: also called mu FAP; murine FAP
Protocol: as §1

[1] = target: T3, His-tagged cynomolgus FAP ECD (cynomolgus, UniProt Q12884 27-760 (human entry)); assay: as above
T3 construct: also called cyno FAP
Protocol: as §1

[2] = target: T4, human IL-10R1 ECD fused to a human Fc region, biotinylated (human, biotinylated (site not stated)); assay: SPR ProteOn XPR36, 25 C; biotinylated hu IL-10R1-Fc on neutravidin chip, construct as analyte
T4 construct: Captured on a neutravidin chip; also called hu IL-10R1; IL-10 receptor 1
Protocol: To measure the interaction between the antibody-IL-10 fusion constructs and the human IL-10R1, an NLC chip was used for immobilization of the biotinylated receptor (FIG. 9B). Between 400 and 1600 RU of human IL-10R1 (see SEQ ID NO: 87) were captured on the neutravidin-derivatized chip matrix along vertical channels at a concentration of 10 μg/ml and a flow rate of […] for varying contact times. Binding to biotinylated human IL10R1 was measured at six different analyte concentrations (50, 10, 2, 0.4, 0.08, 0 nM) by injections in horizontal orientation at 100 μl/min, recording the association rate for 180 s, the dissociation rate for 600 s. Running buffer (PBST) was injected along the sixth channel to provide an “in-line” blank for referencing. Association rates (kₒₙ) and dissociation rates (koff) were calculated using a simple 1:1 Langmuir binding model (ProteOn Manager software version 2.1) by simultaneously fitting the association and dissociation sensorgrams. The equilibrium dissociation constant (KD) was calculated as the ratio koff/kₒₙ. As human IL-10R1 could not be regenerated without a loss of activity, the two subsequent steps of ligand capture and analyte injection were performed channel per channel using a freshly immobilized sensorchip surface for every interaction.

Kd (His-tagged human FAP ECD) [nM] | koff (His-tagged human FAP ECD) [s⁻¹] | kon (His-tagged human FAP ECD) [M⁻¹ s⁻¹] | Kd (His-tagged mouse FAP ECD) [nM] | koff (His-tagged mouse FAP ECD) [s⁻¹] | kon (His-tagged mouse FAP ECD) [M⁻¹ s⁻¹] | Kd [1] [nM] | koff [1] [s⁻¹] | kon [1] [M⁻¹ s⁻¹] | Kd [2] [nM] | koff [2] [s⁻¹] | kon [2] [M⁻¹ s⁻¹] | Binder
0.00105 | 5.72e-06 | 5.47e+06 | 0.0234 | 6.27e-05 | 2.68e+06 | 0.0175 | 7.27e-05 | 4.16e+06 | 0.0212 | 4.57e-05 | 2.15e+06 | 4B9 Fab-IL-10 (other, also called Fab-IL-10 (clone 4B9)) heavy: EVQLLESGGGLVQPGGSLRLSCAASGFTFSSYAMSWVRQAPGKGLEWVSAIIGSGASTYYADSVKGRFTISRDNSKNTLYLQMNSLRAEDTAVYYCAKGWFGGFNYWGQGTLVTVSSASTKGPSVFPLAPSSKSTSGGTAALGCLVKDYFPEPVTVSWNSGALTSGVHTFPAVLQSSGLYSLSSVVTVPSSSLGTQTYICNVNHKPSNTKVDKKVEPKSCDGGGGSGGGGSGGGGSSPGQGTQSENSCTHFPGNLPNMLRDLRDAFSRVKTFFQMKDQLDNLLLKESLLEDFKGYLGCQALSEMIQFYLEEVMPQAENQDPDIKAHVNSLGENLKTLRLRLRRCHRFLPCENKSKAVEQVKNAFNKLQEKGIYKAMSEFDIFINYIEAYMTMKIRN light: EIVLTQSPGTLSLSPGERATLSCRASQSVTSSYLAWYQQKPGQAPRLLINVGSRRATGIPDRFSGSGSGTDFTLTISRLEPEDFAVYYCQQGIMLPPTFGQGTKVEIKRTVAAPSVFIFPPSDEQLKSGTASVVCLLNNFYPREAKVQWKVDNALQSGNSQESVTEQDSKDSTYSLSSTLTLSKADYEKHKVYACEVTHQGLSSPVTKSFNRGEC
0.00656 | 3.11e-05 | 4.74e+06 | 0.0303 | 7.4e-05 | 2.45e+06 | 0.00679 | 3.35e-05 | 4.93e+06 | 0.0553 | 9.58e-05 | 1.73e+06 | 4B9 Fab-scIL-10-Fab (other, also called Fab-scIL-10-Fab (clone 4B9)) heavy: EVQLLESGGGLVQPGGSLRLSCAASGFTFSSYAMSWVRQAPGKGLEWVSAIIGSGASTYYADSVKGRFTISRDNSKNTLYLQMNSLRAEDTAVYYCAKGWFGGFNYWGQGTLVTVSSASTKGPSVFPLAPSSKSTSGGTAALGCLVKDYFPEPVTVSWNSGALTSGVHTFPAVLQSSGLYSLSSVVTVPSSSLGTQTYICNVNHKPSNTKVDKKVEPKSCDGGGGSGGGGSGGGGSSPGQGTQSENSCTHFPGNLPNMLRDLRDAFSRVKTFFQMKDQLDNLLLKESLLEDFKGYLGCQALSEMIQFYLEEVMPQAENQDPDIKAHVNSLGENLKTLRLRLRRCHRFLPCENKSKAVEQVKNAFNKLQEKGIYKAMSEFDIFINYIEAYMTMKIRNGGGGSGGGGSGGGGSGGGGSSPGQGTQSENSCTHFPGNLPNMLRDLRDAFSRVKTFFQMKDQLDNLLLKESLLEDFKGYLGCQALSEMIQFYLEEVMPQAENQDPDIKAHVNSLGENLKTLRLRLRRCHRFLPCENKSKAVEQVKNAFNKLQEKGIYKAMSEFDIFINYIEAYMTMKIRNGGGGSGGGGSGGGGSEVQLLESGGGLVQPGGSLRLSCAASGFTFSSYAMSWVRQAPGKGLEWVSAIIGSGASTYYADSVKGRFTISRDNSKNTLYLQMNSLRAEDTAVYYCAKGWFGGFNYWGQGTLVTVSSASTKGPSVFPLAPSSKSTSGGTAALGCLVKDYFPEPVTVSWNSGALTSGVHTFPAVLQSSGLYSLSSVVTVPSSSLGTQTYICNVNHKPSNTKVDKKVEPKSCD light: EIVLTQSPGTLSLSPGERATLSCRASQSVTSSYLAWYQQKPGQAPRLLINVGSRRATGIPDRFSGSGSGTDFTLTISRLEPEDFAVYYCQQGIMLPPTFGQGTKVEIKRTVAAPSVFIFPPSDEQLKSGTASVVCLLNNFYPREAKVQWKVDNALQSGNSQESVTEQDSKDSTYSLSSTLTLSKADYEKHKVYACEVTHQGLSSPVTKSFNRGEC

From patent US20140044674A1 (Hoffmann-La Roche, published 2014)
